Source: patent US20140348902A1 (University of Texas, published 2014)
One block for each binder: values may come before it.

Assays:
[1] = target: T1, HLA-A2 (HLA-A*0201) on TAP-deficient T2 cells (human); assay: T2 cell peptide-binding assay, flow cytometry for HLA-A2
T1 construct: also called MHC I (HLA-A2)
Protocol: (§1) TAP-deficient T2 cells were incubated with 20 μg/ml of peptides and 3 μg/ml of β₂-microglobulin (Sigma-Aldrich, Cat # M4890) for 24 hours at 37° C. and 5% CO₂ in air. […] The binding affinity of the peptide to HLA-A2 (T2 binding index) was quantified as follows: (Mean fluorescence intensity [MFI] of HLA-A2 with peptide—MFI of HLA-A2 without peptide)/(MFI of HLA-A2 without peptide).

[2] = target: T1, HLA-A2 (HLA-A*0201) on TAP-deficient T2 …; assay: T2 binding assay, flow cytometry for HLA-A2
Protocol: as §1

binding result [1]: binds
Binder: LLPIMWQL (Synthetic peptide) [TCL1 71-78 peptide (LLPIMWQL)]

binding result [2]: binds
B1: TCL1 65-79 peptide (TQIGPSLLPIMWQLY) (peptide)
peptide: TQIGPSLLPIMWQLY
notes: Synthetic peptide (Sigma-Aldrich, >70% purity); also called P17
